# Measured values published in article PMC7988011, “NAC blocks Cystatin C amyloid complex aggregation in a cell system and in skin of HCCAA patients” (Nature Communications, 2021).
# Values joined by “and” are separate entries in the source; they are usually repeats but may differ in a detail not shown here. Equal values may be shown once.
# Legend:
# [1] = molecular target: the molecule itself; experiment: non-reducing SDS-PAGE with Western blot; lysates (1% NP-40 buffer) and supernatants of stable HEK-293T cells; 2% SDS sample buffer without reducing agent, not heated; NuPAGE 4-12% Bis-Tris; blotted with anti-cystatin C MAB1196
# [2] = molecular target: P01034; experiment: non-reducing SDS-PAGE with Western blot; supernatants and cellular extracts incubated with reduced glutathione (3 mM) at 37 °C before electrophoresis; HMW species quantitated by densitometry; conditions: other: non-reducing SDS-PAGE with Western blot
protein,measurement,setting,value
"L68Q variant of human cystatin C (natural protein, UniProt P01034 27-146, looked up, Vector pBABE-CMV-Puro; also called L68Q-hCC; hCC L68Q) SSPGKPPRLVGGPMDASVEEEGVRRALDFAVGEYNKASNDMYHSRALQVVRARKQIVAGVNYFLDVEQGRTTCTKTQPNLDNCPFHDQPHLKRKAFCSFQIYAVPWQGTMTLSKSTCQDA",stoichiometry N,[1],2 and 3 and 4
same,percent reduction of HMW species with 3 mM GSH (secreted fraction),[2],≈90% reduction of the HMW in the secreted fraction
